From patent US20160222109A1 (DYAX, published 2016) come the findings set out here.

Numbering of substitutions follows the chain as printed.

Assay [1] deals with T1, soluble human FcRn (extra-cellular domain of heavy chain and β2M) (human, UniProt P55899 24-297; P61769 21-119).
T1 construct: also called shFcRn; soluble hFcRn
The assay can be described thus: SPR 8500, hFcRn pH 6.

The target of assay [2] is T1, soluble human FcRn (extra-cellular …). The assay can be described thus: SPR 8500, hFcRn pH 6. The source holds these as a separate data set.
Assay [3] has the same target. The assay can be described thus: SPR, sol Fab, pH 6.0. (In general: SPR reads the build-up and loss of mass on a sensor chip optically.)
Assay [4] shares this target. The assay can be described thus: SPR, sol Fab, pH 7.4.
Assay [5] shares this target. The assay can be described thus: SPR 8500, hFcRn pH 7.4.
Assay [6] shares this target. The assay can be described thus: SPR 8500, hFcRn pH 7.4. The source holds these as a separate data set.
Assay [7] concerns the target T2, soluble rat FcRn (rat, UniProt P13599 23-298; P07151 21-119).
T2 construct: Soluble protein; whole entries named; also called sol rat FcRn
T2 sequence: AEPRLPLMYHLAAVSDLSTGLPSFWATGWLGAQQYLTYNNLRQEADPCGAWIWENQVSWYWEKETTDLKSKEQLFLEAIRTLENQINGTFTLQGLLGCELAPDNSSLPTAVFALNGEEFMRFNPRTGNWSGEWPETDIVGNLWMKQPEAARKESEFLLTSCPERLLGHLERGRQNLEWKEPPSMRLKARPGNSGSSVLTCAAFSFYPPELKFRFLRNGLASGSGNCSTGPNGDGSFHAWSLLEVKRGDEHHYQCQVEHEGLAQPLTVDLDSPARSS
T2 sequence (b2m): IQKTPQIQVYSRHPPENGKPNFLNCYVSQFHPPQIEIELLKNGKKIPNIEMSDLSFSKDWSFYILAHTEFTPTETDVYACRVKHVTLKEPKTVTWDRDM
The assay can be described thus: SPR 8500, rat FcRn pH 6.

Assay [8] concerns the target T1, soluble human FcRn (extra-cellular …). The assay can be described thus: SPR 8500, sol Fab, pH 6.
In assay [9] the target is T2, soluble rat FcRn. The assay can be described thus: SPR 8500, sol Fab, pH 6.
In assay [10] the target is T2, soluble rat FcRn. The assay can be described thus: SPR 8500, rat FcRn pH 6. This is another data set of the same source.
In assay [11] the target is T1, soluble human FcRn (extra-cellular …). The assay can be described thus: SPR 8500, sol Fab, pH 7.5.
Assay [12] has as its target T2, soluble rat FcRn. The assay can be described thus: SPR 8500, sol Fab, pH 7.5.
Assay [13] deals with T2, soluble rat FcRn. The assay can be described thus: SPR 8500, rat FcRn pH 7.4.
The target in assay [14] is T3, human FcRn / human β2M expressed in 293 C11 cells (human, UniProt P55899 24-365; P61769 21-119).
T3 construct: HEK 293 cells engineered to overexpress FcRn; also called hFcRn (cells); hFcRn in THP-1 and Caco-2 cells
T3 sequence (P55899 24-365 limits assumed, chain 1 of 2): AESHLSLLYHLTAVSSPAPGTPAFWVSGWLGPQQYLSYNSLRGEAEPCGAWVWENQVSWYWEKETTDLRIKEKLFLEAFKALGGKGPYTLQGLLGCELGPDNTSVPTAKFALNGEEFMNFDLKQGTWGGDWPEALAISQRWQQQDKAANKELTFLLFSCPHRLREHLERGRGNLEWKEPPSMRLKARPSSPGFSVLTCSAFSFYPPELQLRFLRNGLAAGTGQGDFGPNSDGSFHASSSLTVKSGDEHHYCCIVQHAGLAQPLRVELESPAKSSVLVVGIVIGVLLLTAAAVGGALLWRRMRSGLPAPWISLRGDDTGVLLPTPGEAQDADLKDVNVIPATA
T3 sequence (P61769 21-119 limits assumed, chain 2 of 2): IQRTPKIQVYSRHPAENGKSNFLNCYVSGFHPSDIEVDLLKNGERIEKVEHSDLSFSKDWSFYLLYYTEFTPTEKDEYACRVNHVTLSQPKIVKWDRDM
The assay can be described thus: FACS blocking of IgG-Fc, sol Fab, pH 6.

In assay [15] the target is T4, rat FcRn / rat β2M expressed on cells (rat, UniProt P13599 23-366; P07151 21-119).
T4 construct: also called rat FcRn (cells); rat fibroblasts expressing rat FcRn
T4 sequence: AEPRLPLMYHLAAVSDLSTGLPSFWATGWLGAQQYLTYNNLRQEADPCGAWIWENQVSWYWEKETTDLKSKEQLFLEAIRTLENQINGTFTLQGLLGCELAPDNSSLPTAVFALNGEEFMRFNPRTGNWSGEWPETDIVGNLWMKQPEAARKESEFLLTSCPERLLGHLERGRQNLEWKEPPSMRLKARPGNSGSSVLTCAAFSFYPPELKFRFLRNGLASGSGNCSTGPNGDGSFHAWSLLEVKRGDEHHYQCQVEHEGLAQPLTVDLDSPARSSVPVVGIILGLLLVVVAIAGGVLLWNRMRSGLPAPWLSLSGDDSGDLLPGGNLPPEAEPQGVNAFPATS
T4 sequence (b2m): T2 sequence (b2m)
The assay can be described thus: FACS blocking of IgG-Fc, sol Fab, pH 6.

In assay [16] the target is T2, soluble rat FcRn. The assay can be described thus: SPR 8500, rat FcRn pH 7.4; rat FcRn pH 7.4.
The target in assay [17] is T3, human FcRn / human β2M expressed in 293 …. The assay can be described thus: FACS blocking, hFcRn cells, pH 6.
Assay [18] has as its target T1, soluble human FcRn (extra-cellular …). The assay can be described thus: Biacore, hFcRn on chip, IgG flowed, pH 6.
The target is the same in assay [19]. The assay can be described thus: Biacore, IgG on chip, hFcRn flowed, pH 6.
Assay [20] has the same target. The assay can be described thus: Biacore, hFcRn on chip, IgG flowed, pH 7.4.
The target is the same in assay [21]. The assay can be described thus: Biacore, IgG on chip, hFcRn flowed, pH 7.4.
The target is the same in assay [22]. The assay can be described thus: Biacore, IgG on chip, hFcRn flowed, pH 7.4. The source holds these as a separate data set.

T1 sequence (P55899 24-297 limits assumed, chain 1 of 2): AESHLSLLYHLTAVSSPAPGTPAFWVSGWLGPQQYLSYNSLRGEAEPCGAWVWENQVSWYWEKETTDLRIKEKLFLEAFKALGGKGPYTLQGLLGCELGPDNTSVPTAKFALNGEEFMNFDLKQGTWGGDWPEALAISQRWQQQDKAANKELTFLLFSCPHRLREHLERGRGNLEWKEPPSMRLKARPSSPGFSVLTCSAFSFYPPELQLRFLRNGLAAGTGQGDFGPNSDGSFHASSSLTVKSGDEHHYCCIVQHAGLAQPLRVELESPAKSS
T1 sequence (P61769 21-119 limits assumed, chain 2 of 2): as the sequence (P61769 21-119 limits assumed, chain 2 of 2) above

B1: 532A-M0090-F11 soluble Fab (Fab)
VH: EVQLLESGGGLVQPGGSLRLSCAASGFTFSEYAMGWVRQAPGKGLEWVSSIGSSGGQTKYADSVKGRFTISRDNSKNTLYLQMNSLRAEDTAVYYCARLSTGELYWGQGTLVTVSS
light: QSVLTQPASVSGSPGQSITISCTGTGSDVGSYNLVSWYQKYPGKAPKLIIYGDSQRPSGLSSRFSGSKSGNSASLTISGLQAEDEADYYCCSYAGSGIYVFGSGTKVTVLSQPKANPTVTLFPPSSEELQANKATLVCLISDFYPGAVTVAWKADGSPVKAGVETTKPSKQSNNKYAASSYLSLTPEQWKSHRSYSCQVTHEGSTVEKTVAPAECS
notes: sFab from phage display; CH1 not set out for the Fab; also called M90-F11 (Fab); M090-F11
In the case of B1, the dissociation constant Kd (in general, the concentration at which binding is half-saturated) in assay [1] came to 9.2 nM; in assay [2] it was 6.11 nM; in assay [3] it was 12 nM; in assay [4], 13 nM; in assay [5], 19.1 nM; in [6] it was 7.08 nM. Moreover, the Kd in the assay with soluble rat FcRn [7] amounted to 31.2 nM; in [8], 9.2 nM; in the assay with soluble rat FcRn [9] it was 31.2 nM; with soluble rat FcRn [10], 20.3 nM; in assay [11], 19.1 nM; with soluble rat FcRn [12], 9.9 nM. The dissociation constant Kd came out at 3.29 nM with soluble rat FcRn [13] and 9.96 nM with soluble rat FcRn [16]. The “Fold Kd Improvement Over Germlined M90-F11” value in assay [4] stood at 2.3 fold. The concentration for half-maximal inhibition (IC50) (in general, the concentration that gives 50% inhibition) in assay [14] is 13 nM; in assay [15], 6480 nM.

B2: 532A-M0090-F11 (germlined LC changes) IgG (antibody)
heavy: EVQLLESGGGLVQPGGSLRLSCAASGFTFSEYAMGWVRQAPGKGLEWVSSIGSSGGQTKYADSVKGRFTISRDNSKNTLYLQMNSLRAEDTAVYYCARLSTGELYWGQGTLVTVSSASTKGPSVFPLAPSSKSTSGGTAALGCLVKDYFPEPVTVSWNSGALTSGVHTFPAVLQSSGLYSLSSVVTVPSSSLGTQTYICNVNHKPSNTKVDKKVEPKSCDKTHTCPPCAPELLGGPSVFLFPPKPKDTLMISRTPEVTCVVVDVSHEDPEVKFNWYVDGVEVHNAKTKPREEQYNSTYRVVSVLTVLHQDWLNGKEYKCKVSNKALPAPIEKTISKAKGQPREPQVYTLPPSPREPQVYTLPPSRDELTKNQVSLTCLVKGFYPSDIAVEWESNGQPENNYKTTPPVLDSDGSFFLYSKLTVDKSRWQQGNVFSCSVMHEALHNHYTQKSLSLSPGK
light: B1 light with V3A, K40Q, Y41H, I49M, L60V, S62N, S72T, S103T, S111G, A213T
notes: also called Germlined M90-F11 (GL)
For the molecule B2, in [17], the 50% inhibitory concentration (IC50) is 0.38 nM. Also, the Kd in [18] came to 0.172 nM; in assay [19], 29.9 nM; in assay [20], 0.779 nM; in assay [21], 35.2 nM. In addition, the off-rate (koff) (commonly the first-order rate constant of dissociation) in [18] amounted to 0.000764 s⁻¹; in assay [19] it was 0.0172 s⁻¹; in assay [20], 0.000776 s⁻¹; in assay [21], 0.0152 s⁻¹. Also, the on-rate (kon) (as a rule, a measure of how fast the partners come together) in assay [18] worked out at 4.45e+06 M⁻¹ s⁻¹; in [19], 574000 M⁻¹ s⁻¹; in [20], 996000 M⁻¹ s⁻¹; in [21] it was 433000 M⁻¹ s⁻¹.

B3: DX-2500 (germlined LC & allotype HC changes) (antibody)
heavy: B2 heavy with K213R, D366E, L368M
light: B1 light with V3A, K40Q, Y41H, I49M, L60V, S62N, S72T, S103T, S111G, A213T
notes: IgG, F allotype; 13 amino acid changes against parent M90-F11
In assay [17], B3 gave an IC50 of 0.65 nM. In addition, in [18], the Kd was 0.16 nM, the off-rate constant (koff) came out at 0.000336 s⁻¹ and the association rate constant (kon) worked out at 2.11e+06 M⁻¹ s⁻¹. For the same molecule, in assay [19], the dissociation constant (Kd) was found to be 27.6 nM, the dissociation rate constant (koff) turned out to be 0.0177 s⁻¹ and the kon came to 642000 M⁻¹ s⁻¹. In assay [20], this molecule gave a Kd of 0.268 nM, a koff of 0.000338 s⁻¹ and a kon of 1.26e+06 M⁻¹ s⁻¹. Moreover, in assay [22], the “K off Fold improvement over DX2500” value amounted to 1 fold, the “K off Fold improvement over M90-F11” value worked out at 0.15 fold, the “KD Fold improvement over DX2500” value worked out at 1 fold and the “KD Fold improvement over M90-F11” value amounted to 0.21 fold. Moreover, in assay [22], the Kd was found to be 87.9 nM, the koff is 0.0197 s⁻¹ and the association rate constant (kon) came out at 224000 M⁻¹ s⁻¹.
